In patent EP4721754A1 (Hangzhou Sciwind Biosciences Co., Ltd., dated 2026):
Numbered stars: 1 amine (or outer) side, 2 acyl side, 3 side chain; on linkers, the order of the positions; unused ones are H or OH. Bridge positions count the residues as written; N and C are the ends. Square brackets hold non-standard residues; d marks the D form. Primed or numbered codes have the meaning given here. Ends that are not written are not given here. * marks the point of attachment. C22 diacid′ = docosanedioic acid (C22 diacid) acyl; C20 diacid = O=C(O)CCCCCCCCCCCCCCCCCCC(=O)*; C18 diacid = O=C(O)CCCCCCCCCCCCCCCCC(=O)*; C16 diacid = O=C(O)CCCCCCCCCCCCCCC(=O)*; γGlu = O=C(O)[C@H](CCC(=O)[*:2])N[*:1]; βAsp = O=C(O)[C@H](CC(=O)[*:2])N[*:1]; Hyp = O=C(O)[C@@H]1C[C@@H](O)CN1; Inp′ = not defined here; AEEA = NCCOCCOCC(=O)O

T1: calcitonin receptor (hCTR) (human, UniProt P30988 25-474)
T1 sequence (looked up): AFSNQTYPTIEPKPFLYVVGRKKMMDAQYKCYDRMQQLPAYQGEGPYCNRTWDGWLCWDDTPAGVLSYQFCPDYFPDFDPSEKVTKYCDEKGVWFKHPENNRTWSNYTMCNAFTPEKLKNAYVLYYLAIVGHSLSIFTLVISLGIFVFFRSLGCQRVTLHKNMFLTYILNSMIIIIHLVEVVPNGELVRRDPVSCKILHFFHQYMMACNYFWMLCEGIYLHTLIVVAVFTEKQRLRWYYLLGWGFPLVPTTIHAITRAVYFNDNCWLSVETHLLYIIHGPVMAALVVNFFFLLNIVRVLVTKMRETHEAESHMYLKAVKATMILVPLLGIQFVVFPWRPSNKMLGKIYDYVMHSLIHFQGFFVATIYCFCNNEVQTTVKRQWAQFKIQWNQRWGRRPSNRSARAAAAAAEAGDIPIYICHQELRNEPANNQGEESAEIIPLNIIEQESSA

T2: amylin receptor (hAMY3R) (human, UniProt P30988 25-474; O60896 24-148)
T2 sequence (looked up) 1: T1 sequence (looked up)
T2 sequence (looked up) 2: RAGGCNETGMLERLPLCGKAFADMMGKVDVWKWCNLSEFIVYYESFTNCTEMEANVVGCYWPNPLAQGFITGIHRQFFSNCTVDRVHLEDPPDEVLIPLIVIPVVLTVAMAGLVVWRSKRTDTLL


Biological target: T1, calcitonin receptor (hCTR)
Assay: cell-based or functional assay

Binder | EC50, CRE-luciferase reporter in calcitonin receptor/CRE-luc CHO cells, 24 h [pM]
{C16 diacid-γGlu}-ASQLSTAVLGRLSDELHRLQDYPRTDVGSGSP-NH2 (ends and bridges not checked) [M9] | 120
{C18 diacid}-E[AEEA][AEEA]ASQLSTAVLGRLSDELHRLQDYPRTDVGSGSP-NH2 [M24] | 81
{C18 diacid-γGlu}-ASQLSTAVLGRLSDELHRLQDYPRTDVGSGSP-NH2 (ends and bridges not checked) [M8] | 165
{C18 diacid}-EASQLSTAVLGRLSDELHRLQDYPRTDVGSGSP-NH2 [M11] | 71
{C18 diacid}-D[AEEA][AEEA]ASQLSTAVLGRLSDELHRLQDYPRTDVGSGSP-NH2 [M26] | 24
ASQLSTAVLGRLSDELHRLQDYPRTDVGSGSP (not fully specified; N terminus: C20 diacid + βAsp+2 AEEAs) [M25] | 138
ASQLSTAVLGRLSDELHRLQDYPRTDVGSGSP (not fully specified; N terminus: C20 diacid + βAsp) [M12] | 73
ASQLSTAVLGRLSDELHRLQDYPRTDVGSGSP (not fully specified; N terminus: C20 diacid + Inp) [M16] | 376
{C20 diacid-γGlu}-ASQLSTAVLGRLSDELHRLQDYPRTDVGSGSP-NH2 (ends and bridges not checked) [M6] | 28

Other lines, results leading:

EC50, CRE-luciferase reporter in calcitonin receptor/CRE-luc CHO cells, 24 h [pM] | Binder
259 | {C18 diacid-Inp′}-ASQLSTAVLGRLSDELHRLQDYPRTDVGSGSP-NH2 [M17]
85 | {C18 diacid}-DASQLSTAVLGRLSDELHRLQDYPRTDVGSGSP-NH2 [M13]
194 | {C22 diacid′-γGlu}-ASQLSTAVLGRLSDELHRLQDYPRTDVGSGSP-NH2 (ends and bridges not checked) [M7]
69 | ASQLSTAVLGRLSDELHRLQDYPRTDVGSGSP (not fully specified; N terminus: C20 diacid + yGlu+2 AEEAs) [M18]
587 | ASQLSTAVLGRLSDELHRLQDYPRTDVGSGSP (not fully specified; N terminus: C20 diacid + Trx) [M14]
469 | ASQLSTAVLGRLSDELHRLQDYPRTDVGSGSP (N terminus: C18 diacid + Trx) [M15]

Biological target: T2, amylin receptor (hAMY3R)
Assay: cell-based or functional assay

fold increase of agonistic activity against the amylin receptor, compared with M17 [fold] | Binder
~70 | {C18 diacid-Inp′-AEEA-AEEA}-ASQLSTAVLGRLSDELHRLQDYPRTDVGSGSP-NH2 [M30]

Biological target: T1, calcitonin receptor (hCTR)
Assay: cell-based or functional assay
Remark: another data set of the same source

Binder | Fold change in activity against hCTR (benchmark D1) [fold] | hCTR EC50, CRE-luciferase reporter cells [pM]
{C18 diacid-Inp′-AEEA-AEEA}-ASQLSTAVLGRLSDELHRLQDYPRTDVGSGSP-NH2 [M30] | 0.848 | 101
{C18 diacid}-E[AEEA][AEEA]ASQLSTAVLGRLSDELHRLQDYPRTDVGSGSP-NH2 [M24] | 1.06 | 
{C18 diacid}-EASQLSTAVLGRLSDELHRLQDYPRTDVGSGSP-NH2 [M11] | 1.21 | 
ASQLSTAVLGRLSDELHRLQDYPRTDVGSGSP (not fully specified; N terminus: C20 diacid + βAsp+2 AEEAs) [M25] | 0.623 | 
ASQLSTAVLGRLSDELHRLQDYPRTDVGSGSP (not fully specified; N terminus: C20 diacid + βAsp) [M12] | 1.18 | 
ASQLSTAVLGRLSDELHRLQDYPRTDVGSGSP (not fully specified; N terminus: C20 diacid + Trx+2 AEEAs) [M27] | 0.161 | 533
ASQLSTAVLGRLSDELHRLQDYPRTDVGSGSP (not fully specified; N terminus: C20 diacid + Inp) [M16] | 0.229 | 
{C20 diacid-γGlu}-ASQLSTAVLGRLSDELHRLQDYPRTDVGSGSP-NH2 (ends and bridges not checked) [M6] | 3.07 | 

Other lines, results leading:

Fold change in activity against hCTR (benchmark D1) [fold] | hCTR EC50, CRE-luciferase reporter cells [pM] | Binder
0.332 |  | {C18 diacid-Inp′}-ASQLSTAVLGRLSDELHRLQDYPRTDVGSGSP-NH2 [M17]
1.25 |  | ASQLSTAVLGRLSDELHRLQDYPRTDVGSGSP (not fully specified; N terminus: C20 diacid + yGlu+2 AEEAs) [M18]
0.147 |  | ASQLSTAVLGRLSDELHRLQDYPRTDVGSGSP (not fully specified; N terminus: C20 diacid + Trx) [M14]
0.183 |  | ASQLSTAVLGRLSDELHRLQDYPRTDVGSGSP (N terminus: C18 diacid + Trx) [M15]
0.966 | 89 | ASQLSTAVLGRLSDELHRLQDYPRTDVGSGSP (N terminus: C18 diacid + Trx+2 AEEAs) [M28]
0.551 | 156 | ASQLSTAVLGRLSDELHRLQDYPRTDVGSGSP (not fully specified; N terminus: C20 diacid + Inp+2 AEEAs) [M29]

Biological target: T2, amylin receptor (hAMY3R)
Assay: cell-based or functional assay
Remark: another data set of the same source

Binder | Fold change in activity against hAMY3R (benchmark D1) [fold] | hAMY3R EC50, CRE-luciferase reporter cells [pM]
{C18 diacid-Inp′-AEEA-AEEA}-ASQLSTAVLGRLSDELHRLQDYPRTDVGSGSP-NH2 [M30] | 36 | 
{C18 diacid}-E[AEEA][AEEA]ASQLSTAVLGRLSDELHRLQDYPRTDVGSGSP-NH2 [M24] | 5.14 | 
{C18 diacid}-EASQLSTAVLGRLSDELHRLQDYPRTDVGSGSP-NH2 [M11] | 2.25 | 
ASQLSTAVLGRLSDELHRLQDYPRTDVGSGSP (not fully specified; N terminus: C20 diacid + βAsp+2 AEEAs) [M25] | 2.12 | 
ASQLSTAVLGRLSDELHRLQDYPRTDVGSGSP (not fully specified; N terminus: C20 diacid + βAsp) [M12] | 2.12 | 
ASQLSTAVLGRLSDELHRLQDYPRTDVGSGSP (not fully specified; N terminus: C20 diacid + Trx+2 AEEAs) [M27] | 9 | 
ASQLSTAVLGRLSDELHRLQDYPRTDVGSGSP (not fully specified; N terminus: C20 diacid + Inp) [M16] | 0.439 | 
{C20 diacid-γGlu}-ASQLSTAVLGRLSDELHRLQDYPRTDVGSGSP-NH2 (ends and bridges not checked) [M6] | 2.12 | 

Other lines, results leading:

Fold change in activity against hAMY3R (benchmark D1) [fold] | hAMY3R EC50, CRE-luciferase reporter cells [pM] | Binder
0.571 |  | {C18 diacid-Inp′}-ASQLSTAVLGRLSDELHRLQDYPRTDVGSGSP-NH2 [M17]
2.25 | 16 | ASQLSTAVLGRLSDELHRLQDYPRTDVGSGSP (not fully specified; N terminus: C20 diacid + yGlu+2 AEEAs) [M18]
0.079 |  | ASQLSTAVLGRLSDELHRLQDYPRTDVGSGSP (not fully specified; N terminus: C20 diacid + Trx) [M14]
0.303 |  | ASQLSTAVLGRLSDELHRLQDYPRTDVGSGSP (N terminus: C18 diacid + Trx) [M15]
18 |  | ASQLSTAVLGRLSDELHRLQDYPRTDVGSGSP (N terminus: C18 diacid + Trx+2 AEEAs) [M28]
6 |  | ASQLSTAVLGRLSDELHRLQDYPRTDVGSGSP (not fully specified; N terminus: C20 diacid + Inp+2 AEEAs) [M29]

Biological target: T2, amylin receptor (hAMY3R)
Assay: cell-based or functional assay
Remark: another data set of the same source

Binder | EC50, CRE-luciferase reporter in amylin receptor/CRE-luc CHO cells, 24 h [pM] | EC50, CRE-luciferase reporter in amylin receptor/CRE-luc CHO cells (incubation presumably 4 h, per paragraph 38) [pM] | EC50, CRE-luciferase reporter in amylin receptor/CRE-luc CHO cells (incubation presumably 24 h) [pM]
{C16 diacid-γGlu}-ASQLSTAVLGRLSDELHRLQDYPRTDVGSGSP-NH2 (ends and bridges not checked) [M9] | 2 |  | 
{C18 diacid-Inp′-AEEA-AEEA}-ASQLSTAVLGRLSDELHRLQDYPRTDVGSGSP-NH2 [M30] | 1 |  | 
{C20 diacid-βAsp-AEEA-AEEA}-KCNTATCATQRLADFLRHSSNNLKPILPPTNVGSNT[Hyp]-NH2 (disulfide 2-7 (inferred); ends not checked) [N2] |  | 9 | 40
{C20 diacid-AEEA-AEEA}-KCNTATCATQRLADFLRHSSNNLKPILPPTNVGSNT[Hyp]-NH2 (disulfide 2-7 (inferred); ends not checked) [N1] | 16 |  | 
{C18 diacid}-E[AEEA][AEEA]ASQLSTAVLGRLSDELHRLQDYPRTDVGSGSP-NH2 [M24] | 7 |  | 
{C18 diacid-γGlu}-ASQLSTAVLGRLSDELHRLQDYPRTDVGSGSP-NH2 (ends and bridges not checked) [M8] | 16 |  | 
{C18 diacid}-EASQLSTAVLGRLSDELHRLQDYPRTDVGSGSP-NH2 [M11] | 16 |  | 
{C18 diacid}-D[AEEA][AEEA]ASQLSTAVLGRLSDELHRLQDYPRTDVGSGSP-NH2 [M26] | 8 |  | 
ASQLSTAVLGRLSDELHRLQDYPRTDVGSGSP (not fully specified; N terminus: C20 diacid + βAsp+2 AEEAs) [M25] | 17 |  | 
ASQLSTAVLGRLSDELHRLQDYPRTDVGSGSP (not fully specified; N terminus: C20 diacid + αGlu+2 AEEAs) [M23] | 17 |  | 
ASQLSTAVLGRLSDELHRLQDYPRTDVGSGSP (not fully specified; N terminus: C20 diacid + βAsp) [M12] | 17 |  | 
ASQLSTAVLGRLSDELHRLQDYPRTDVGSGSP (not fully specified; N terminus: C20 diacid + αGlu) [M10] | 69 |  | 
ASQLSTAVLGRLSDELHRLQDYPRTDVGSGSP (not fully specified; N terminus: C20 diacid + Trx+2 AEEAs) [M27] | 4 |  | 
ASQLSTAVLGRLSDELHRLQDYPRTDVGSGSP (not fully specified; N terminus: C20 diacid + Inp) [M16] | 82 |  | 
ASQLSTAVLGRLSDELHRLQDYPRTDVGSGSP (not fully specified; N terminus: C20 diacid + yGlu+8 AEEAs) [M21] | 44 |  | 
{C20 diacid-γGlu}-ASQLSTAVLGRLSDELHRLQDYPRTDVGSGSP-NH2 (ends and bridges not checked) [M6] | 17 |  | 

Results, then the binder that gave them:

EC50, CRE-luciferase reporter in amylin receptor/CRE-luc CHO cells, 24 h [pM] | EC50, CRE-luciferase reporter in amylin receptor/CRE-luc CHO cells (incubation presumably 4 h, per paragraph 38) [pM] | EC50, CRE-luciferase reporter in amylin receptor/CRE-luc CHO cells (incubation presumably 24 h) [pM] | Binder
63 |  |  | {C18 diacid-Inp′}-ASQLSTAVLGRLSDELHRLQDYPRTDVGSGSP-NH2 [M17]
 | 1 |  | {C18 diacid-βAsp-AEEA-AEEA}-KCNTATCATQRLADFLRHSSNNLKPILPPTNVGSNT[Hyp]-NH2 (disulfide 2-7 (inferred); ends not checked) [N3]
16 |  |  | {C18 diacid}-DASQLSTAVLGRLSDELHRLQDYPRTDVGSGSP-NH2 [M13]
15 |  |  | {C18 diacid-γGlu-AEEA-AEEA}-ASQLSTAVLGRLSDELHRLQDYPRTDVGSGSP-NH2 [M22]
22 |  |  | {C22 diacid′-γGlu}-ASQLSTAVLGRLSDELHRLQDYPRTDVGSGSP-NH2 (ends and bridges not checked) [M7]
33 |  |  | ASQLSTAVLGRLSQELHRLQDYPRTDVGSGSP-NH2 [M5]
456 |  |  | ASQLSTAVLGRLSDELHRLQDYPRTDVGSGSP (not fully specified; N terminus: C20 diacid + Trx) [M14]
119 |  |  | ASQLSTAVLGRLSDELHRLQDYPRTDVGSGSP (N terminus: C18 diacid + Trx) [M15]
2 |  |  | ASQLSTAVLGRLSDELHRLQDYPRTDVGSGSP (N terminus: C18 diacid + Trx+2 AEEAs) [M28]
6 |  |  | ASQLSTAVLGRLSDELHRLQDYPRTDVGSGSP (not fully specified; N terminus: C20 diacid + Inp+2 AEEAs) [M29]
